The record followed here is US20230070886A1 (NOVAVAX, published 2023).

The target in this assay is His-tagged human angiotensin-converting enzyme 2 precursor (hACE2) (human, UniProt Q9BYF1 18-740). The experiment in a line: bio-layer interferometry.
Chain of His-tagged human angiotensin-converting enzyme 2 precursor (hACE2) (Q9BYF1 18-740 limits assumed): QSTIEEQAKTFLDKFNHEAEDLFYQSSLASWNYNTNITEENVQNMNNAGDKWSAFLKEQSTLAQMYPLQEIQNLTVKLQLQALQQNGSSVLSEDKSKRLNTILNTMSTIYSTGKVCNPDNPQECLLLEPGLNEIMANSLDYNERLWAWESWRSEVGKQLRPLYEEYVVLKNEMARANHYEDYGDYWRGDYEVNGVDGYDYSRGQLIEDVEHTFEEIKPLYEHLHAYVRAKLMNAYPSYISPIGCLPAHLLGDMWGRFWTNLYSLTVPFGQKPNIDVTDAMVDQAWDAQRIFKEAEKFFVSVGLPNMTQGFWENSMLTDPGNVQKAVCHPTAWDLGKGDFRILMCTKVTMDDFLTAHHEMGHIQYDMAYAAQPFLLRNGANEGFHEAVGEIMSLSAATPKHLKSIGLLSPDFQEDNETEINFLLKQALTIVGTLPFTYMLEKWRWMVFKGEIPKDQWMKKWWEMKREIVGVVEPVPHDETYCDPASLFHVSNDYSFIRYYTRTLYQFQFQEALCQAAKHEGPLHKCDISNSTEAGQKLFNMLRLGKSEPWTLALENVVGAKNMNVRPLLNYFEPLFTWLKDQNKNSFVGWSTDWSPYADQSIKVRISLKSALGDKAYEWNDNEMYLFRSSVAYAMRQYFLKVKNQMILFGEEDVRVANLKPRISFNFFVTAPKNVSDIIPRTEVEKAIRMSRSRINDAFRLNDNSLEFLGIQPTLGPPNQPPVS

B1: MERS S protein (other)
chain: YVDVGPDSVKSACIEVDIQQTFFDKTWPRPIDVSKADGIIYPQGRTYSNITITYQGLFPYQGDHGDMYVYSAGHATGTTPQKLFVANYSQDVKQFANGFVVRIGAAANSTGTVIISPSTSATIRKIYPAFMLGSSVGNFSDGKMGRFFNHTLVLLPDGCGTLLRAFYCILEPRSGNHCPAGNSYTSFATYHTPATDCSDGNYNRNASLNSFKEYFNLRNCTFMYTYNITEDEILEWFGITQTAQGVHLFSSRYVDLYGGNMFQFATLPVYDTIKYYSIIPHSIRSIQSDRKAWAAFYVYKLQPLTFLLDFSVDGYIRRAIDCGFNDLSQLHCSYESFDVESGVYSVSSFEAKPSGSVVEQAEGVECDFSPLLSGTPPQVYNFKRLVFTNCNYNLTKLLSLFSVNDFTCSQISPAAIASNCYSSLILDYFSYPLSMKSDLSVSSAGPISQFNYKQSFSNPTCLILATVPHNLTTITKPLKYSYINKCSRFLSDDRTEVPQLVNANQYSPCVSIVPSTVWEDGDYYRKQLSPLEGGGWLVASGSTVAMTEQLQMGFGITVQYGTDTNSVCPKLEFANDTKIASQLGNCVEYSLYGVSGRGVFQNCTAVGVRQQRFVYDAYQNLVGYYSDDGNYYCLRACVSVPVSVIYDKETKTHATLFGSVACEHISSTMSQYSRSTRSMLKRRDSTYGPLQTPVGCVLGLVNSSLFVEDCKLPLGQSLCALPDTPSTLTPRSVRSVPGEMRLASIAFNHPIQVDQLNSSYFKLSIPTNFSFGVTQEYIQTTIQKVTVDCKQYVCNGFQKCEQLLREYGQFCSKINQALHGANLRQDDSVRNLFASVKSSQSSPIIPGFGGDFNLTLLEPVSISTGSRSARSAIEDLLFDKVTIADPGYMQGYDDCMQQGPASARDLICAQYVAGYKVLPPLMDVNMEAAYTSSLLGSIAGVGWTAGLSSFAAIPFAQSIFYRLNGVGITQQVLSENQKLIANKFNQALGAMQTGFTTTNEAFHKVQDAVNNNAQALSKLASELSNTFGAISASIGDIIQRLDVLEQDAQIDRLINGRLTTLNAFVAQQLVRSESAALSAQLAKDKVNECVKAQSKRSGFCGQGTHIVSFVVNAPNGLYFMHVGYYPSNHIEVVSAYGLCDAANPTNCIAPVNGYFIKTNNTRIVDEWSYTGSSFYAPEPITSLNTKYVAPQVTYQNISTNLPPPLLGNSTGIDFQDELDEFFKNVSTSIPNFGSLTQINTTLLDLTYEMLSLQQVVKALNESYIDLKELGNYTYYNKWPWYIWLGFIAGLVALALCVFFILCCTGCGTNCMGKLKCNRCCDRYEEYDLEPHKVHVH
For the molecule B1, the binding result is “no binding”.
